In IntAct's records for PubMed 19787799:

B1: Protein ERGIC-53 (Homo sapiens), P49257 (parent)
chain: MAGSRQRGLRARVRPLFCALLLSLGRFVRGDGVGGDPAVALPHRRFEYKYSFKGPHLVQSDGTVPFWAHAGNAIPSSDQIRVAPSLKSQRGSVWTKTKAAFENWEVEVTFRVTGRGRIGADGLAIWYAENQGLEGPVFGSADLWNGVGIFFDSFDNDGKKNNPAIVIIGNNGQIHYDHQNDGASQALASCQRDFRNKPYPVRAKITYYQNTLTVMINNGFTPDKNDYEFCAKVENMIIPAQGHFGISAATGGLADDHDVLSFLTFQLTEPGKEPPTPDKEISEKEKEKYQEEFEHFQQELDKKKEEFQKGHPDLQGQPAEEIFESVGDRELRQVFEGQNRIHLEIKQLNRQLDMILDEQRRYVSSLTEEISKRGAGMPGQHGQITQQELDTVVKTQHEILRQVNEMKNSMSETVRLVSGMQHPGSAGGVYETTQHFIDIKEHLHIVKRDIDNLVQRNMPSNEKPKCPELPPFPSCLSTVHFIIFVVVQTVLFIGYIMYRSQQEAAAKKFF
partner: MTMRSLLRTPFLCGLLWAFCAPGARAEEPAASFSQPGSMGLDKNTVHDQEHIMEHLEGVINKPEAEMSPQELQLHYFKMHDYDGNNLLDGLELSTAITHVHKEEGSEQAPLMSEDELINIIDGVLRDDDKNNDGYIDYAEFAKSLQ

Variants of: B1
Details: with mcfd2_human MCFD2, Q8NI22

effect of a mutation on the interaction	Variant
disrupting interaction strength	MAGSRQRGLRARVRPLFCALLLSLGRFVRGDGVGGDPAVALPHRRFEYKYSFKGPHLVQSDGTVPFSAHAGNAIPSSDQIRVAPSLKSQRGSVWTKTKAAFENWEVEVTFRVTGRGRIGADGLAIWYAENQGLEGPVFGSADLWNGVGIFFDSFDNDGKKNNPAIVIIGNNGQIHYDHQNDGASQALASCQRDFRNKPYPVRAKITYYQNTLTVMINNGFTPDKNDYEFCAKVENMIIPAQGHFGISAATGGLADDHDVLSFLTFQLTEPGKEPPTPDKEISEKEKEKYQEEFEHFQQELDKKKEEFQKGHPDLQGQPAEEIFESVGDRELRQVFEGQNRIHLEIKQLNRQLDMILDEQRRYVSSLTEEISKRGAGMPGQHGQITQQELDTVVKTQHEILRQVNEMKNSMSETVRLVSGMQHPGSAGGVYETTQHFIDIKEHLHIVKRDIDNLVQRNMPSNEKPKCPELPPFPSCLSTVHFIIFVVVQTVLFIGYIMYRSQQEAAAKKFF [W67S]
